Experimental data as given in patent publication US20140303084A1 (Biogen, published 2014).
Bridge positions count the residues as written; N and C are the ends. Square brackets hold non-standard residues; d marks the D form. Primed or numbered codes have the meaning given here. Side chains are listed from the residue outwards. Ends that are not written are not given here. * marks the point of attachment. Biotin = O=C1N[C@H]2[C@H](CS[C@H]2CCCCC(=O)*)N1; PEG2(3) = PEG2 spacer carrying biotin on Lys; PEG2″ = not defined here; PEG = not defined here; PEG2(4) = PEG2 spacer; PEG4′ = PEG4 spacer

Molecular target: human Factor IXa (human, UniProt P00740 47-191; P00740 227-461)
Assay: cell-based or functional assay

| Binder | EC50 [µM], FXa generation assay [µM] | EC50 [µM], FXa generation assay with hFIXa [µM] |
| --- | --- | --- |
| LQLSYGEQRQSRAPGKLTCLASYCWLFWTGIA [LQLSYGEQRQ SRAPG KLTCLASYCWLFWTGIA] | < 0.5 |  |
| PSGWAGWAPGRREPGKLTCLASYCWLFWTGIA [PSGWAGWAPG RREPG KLTCLASYCWLFWTGIA] | > 1 |  |
| GYRVPVGGLVRRAHGKLTCLASYCWLFWTGIA [GYRVPVGGLV RRAHG KLTCLASYCWLFWTGIA] | > 1 |  |
| CRRAPGKLQCLASYCWLFWTGIAC | > 1 |  |
| E([PEG-Biotin])RAPGKLTCLASYCWLFWTGIA (not fully specified; printed as Glu(Biotinyl-PEG)-RAPGKLTCLASYCWLFWTGIA; cysteine pairing not given here; reading uncertain) [Glu(Biotinyl-PEG)-RAPGKLTCLASYCWLFWTGIA] | > 4 |  |
| QWQIAGQVLKRRAPAKLTCLASYCWLFWTGIA [QWQIAGQVLKRRAPA KLTCLASYCWLFWTGIA] | < 0.5 |  |
| RK([PEG2(3)-Biotin])APGKLTCLASYCWLFWTGIA (not fully specified (C-terminus); printed as RK(PEG2-Biotin)APGKLTCLASYCWLFWTGIA; cysteine pairing not given here) [RK(PEG2-Biotin)APGKLTCLASYCWLFWTGIA] | < 0.5 |  |
| CRRAPGKLQCLASYCWLFWTGIAGGSGGC | > 1 |  |
| AVDSLPLYGARSAPSKLTCLASYCWLFWTGIA (not fully specified; cysteine pairing not given here) [AVDSLPLYGA RSAPS KLTCLASYCWLFWTGIA] | < 0.5 |  |
| CGGSGGRRAPGKLQCLASYCWLFWTGIAGGSGGC | > 1 |  |
| RRAPGK([PEG2(3)-Biotin])LTCLASYCWLFWTGIA (not fully specified (bridges); printed as RRAPGK(PEG2-Biotin)LTCLASYCWLFWTGIA; cysteine pairing not given here) [RRAPGK(PEG2-Biotin)LTCLASYCWLFWTGIA] | < 0.5 |  |
| HLFGADWLGARTAPGKLTCLASYCWLFWTGIA [HLFGADWLGA RTAPG KLTCLASYCWLFWTGIA] | > 1 |  |
| CGGSGGRRAPGKLQCLASYCWLFWTGIAC | > 1 |  |
| QRAGRVARLHRRAPNKLTCLASYCWLFWTGIA [QRAGRVARLH RRAPN KLTCLASYCWLFWTGIA] | > 1 |  |
| [PEG4′]RRAPGKLTCLASYCWLFWTGIA (disulfide 10-15 (inferred); not fully specified (C-terminus); printed as PEG4-RRAPGKLTCLASYCWLFWTGIA) [PEG4-RRAPGKLTCLASYCWLFWTGIA] | < 0.5 |  |
| RRAK([PEG2(4)-Biotin])GKLTCLASYCWLFWTGIA (not fully specified (C-terminus); printed as RRAK(PEG2-Biotin)GKLTCLASYCWLFWTGIA; cysteine pairing not given here) [RRAK(PEG2-Biotin)GKLTCLASYCWLFWTGIA] | > 1 |  |

The remaining lines, values ahead:

| EC50 [µM], FXa generation assay [µM] | EC50 [µM], FXa generation assay with hFIXa [µM] | Binder |
| --- | --- | --- |
| < 0.5 |  | TQWAQVGPRGRRAQGKLTCLASYCWLFWTGIA [TQWAQVGPRG RRAQG KLTCLASYCWLFWTGIA] |
| < 0.5 |  | RRAPGKLTCLASYCWLFWTGIK([PEG2(3)-Biotin]) (not fully specified (C-terminus); printed as RRAPGKLTCLASYCWLFWTGIK(PEG2-Biotin); cysteine pairing not given here) [RRAPGKLTCLASYCWLFWTGIK(PEG2-Biotin)] |
| < 0.5 |  | RRK([PEG2″-Biotin])PGKLTCLASYCWLFWTGIA (not fully specified; printed as RRK(PEG2-Biotin)PGKLTCLASYCWLFWTGIA; cysteine pairing not given here) [RRK(PEG2-Biotin)PGKLTCLASYCWLFWTGIA] |
| < 0.5 |  | RRAPGKLTCLASYCWLFWTGIA (not fully specified; C-terminal PEG4) [RRAPGKLTCLASYCWLFWTGIA-PEG4] |
| < 0.5 |  | WRAGLDESQRDRAPGKLTCLASYCWLFWTGIA [WRAGLDESQR DRAPG KLTCLASYCWLFWTGIA] |
| < 0.5 |  | RRAPGKLTCLASYCWLFWK([PEG2″-Biotin])GIA (not fully specified; printed as RRAPGKLTCLASYCWLFWK(PEG2-Biotin)GIA; cysteine pairing not given here) [RRAPGKLTCLASYCWLFWK(PEG2-Biotin)GIA] |
|  | < 0.5 | SKQGRPISPD[dR]RAAGKLTCLASYCWLFWTGIA-NH2 (cysteine pairing not given here) [compound 24] |
| < 0.5 |  | VGSGDERALPSRASGKLTCLASYCWLFWTGIA [VGSGDERALP SRASG KLTCLASYCWLFWTGIA] |
| < 0.5 |  | RRAPGKLTCLASYCK([PEG2(3)-Biotin])LFWTGIA (not fully specified (C-terminus); printed as RRAPGKLTCLASYCK(PEG2-Biotin)LFWTGIA; cysteine pairing not given here) [RRAPGKLTCLASYCK(PEG2-Biotin)LFWTGIA] |
| > 1 |  | RRAPGKLTCLASYCWLK([PEG2″-Biotin])WTGIA (not fully specified; printed as RRAPGKLTCLASYCWLK(PEG2-Biotin)WTGIA; cysteine pairing not given here) [RRAPGKLTCLASYCWLK(PEG2-Biotin)WTGIA] |
| < 0.5 |  | RRAPGKLTCK([PEG2(3)-Biotin])ASYCWLFWTGIA (cysteine pairing not given here) [RRAPGKLTCK(PEG2-Biotin)ASYCWLFWTGIA] |
| < 0.5 |  | RRAPGKLTCLASYCWL[dF]WTGIA (not fully specified (C-terminus, bridges); printed as RRAPGKLTCLASYCWLfWTGIA; cysteine pairing not given here) [RRAPGKLTCLASYCWLfWTGIA] |
| > 1 |  | RRAPGKLTCLASYCW[dL]FWTGIA (not fully specified (bridges); printed as RRAPGKLTCLASYCWlFWTGIA; cysteine pairing not given here) [RRAPGKLTCLASYCWlFWTGIA] |
| > 5 |  | RRAPGKK([PEG2(3)-Biotin])TCLASYCWLFWTGIA (cysteine pairing not given here) [RRAPGKK(PEG2-Biotin)TCLASYCWLFWTGIA] |
| < 0.5 |  | RRAPGKLTCLASYCWLFWTGK([PEG2(3)-Biotin])A (not fully specified (C-terminus); printed as RRAPGKLTCLASYCWLFWTGK(PEG2-Biotin)A; cysteine pairing not given here) [RRAPGKLTCLASYCWLFWTGK(PEG2-Biotin)A] |
| > 1 |  | TSGPFGFGGSSRAQGKLTCLASYCWLFWTGIA [TSGPFGFGGS SRAQG KLTCLASYCWLFWTGIA] |
| < 0.5 |  | RRAPGKLTCLASK([PEG2″-Biotin])CWLFWTGIA (not fully specified; printed as RRAPGKLTCLASK(PEG2-Biotin)CWLFWTGIA; cysteine pairing not given here) [RRAPGKLTCLASK(PEG2-Biotin)CWLFWTGIA] |
|  | > 1 | PLKWTASGCRWLGCIQLARFAY-NH2 (cysteine pairing not given here) [compound B] |
| < 0.5 |  | RRAPGKLTCLK([PEG2(3)-Biotin])SYCWLFWTGIA (cysteine pairing not given here) [RRAPGKLTCLK(PEG2-Biotin)SYCWLFWTGIA] |
| < 0.5 |  | RRAPGKLTCLASYCWLFW[dT]GIA (not fully specified (C-terminus, bridges); printed as RRAPGKLTCLASYCWLFWtGIA; cysteine pairing not given here) [RRAPGKLTCLASYCWLFWtGIA] |
| > 1 |  | RRAPGKLTCLASYCWLFWTGI[dA] (not fully specified (C-terminus, bridges); printed as RRAPGKLTCLASYCWLFWTGIa; cysteine pairing not given here) [RRAPGKLTCLASYCWLFWTGIa] |
| > 1 |  | RRAPGKLTCLASYCWK([PEG2(3)-Biotin])FWTGIA (not fully specified (C-terminus); printed as RRAPGKLTCLASYCWK(PEG2-Biotin)FWTGIA; cysteine pairing not given here) [RRAPGKLTCLASYCWK(PEG2-Biotin)FWTGIA] |
| > 1 |  | RRAPGKLTCLASY[dC]WLFWTGIA (not fully specified (C-terminus, bridges); printed as RRAPGKLTCLASYcWLFWTGIA; cysteine pairing not given here) [RRAPGKLTCLASYcWLFWTGIA] |
